Tests used:
HLA-A*02 = HLA-A*02 (Homo sapiens, UniProt P04439, D140Y/D185E/D98H/E176V/E277Q/G131W/G231S/I119V/I121R/I166T/I218V/N151K/N90K/P208A/P217A/Q86G/Q94H/R138H/R169H); test: MHC binding assay (UV-ligand exchange, β2m ELISA)
CD8+ T cells = test: In vitro T-cell priming assay with aAPCs (in vitro immunogenicity for MHC class I presented peptides); assay type: cell-based, human; conditions: in vitro immunogenicity
HLA-B*08 = test: MHC binding assay (UV-ligand exchange, β2m ELISA); set-up: species or system human
HLA-A*03 = HLA-A*03 (Homo sapiens, UniProt P04439); test: MHC binding assay (UV-ligand exchange, β2m ELISA)

Substance | Peptide exchange (peptide exchange yield, MHC class I binding score) (HLA-A*02) | Wells positive [%] (CD8+ T cells; HLA A*02) | Peptide exchange (peptide exchange yield, MHC class I binding score) (HLA-A*03) | other results
96 (HLVGGLHTV; listed as Homo sapiens) [compound 96] | “++++” (>75% = ++++) | “+++” (50%-69% = +++) | – | –
297 (RAQLKLVAL; listed as Homo sapiens) [compound 297] | – | – | – | Peptide exchange (peptide exchange yield, MHC class I binding score) (HLA-B*08): “++++” (>75% = ++++); Wells positive [%] (CD8+ T cells; HLA B*08): “+” (<20% = +)
455 (RIADIFVKK; listed as Homo sapiens) [compound 455] | – | – | “++++” (>75% = ++++) | –
306 (ILKVKVGL; listed as Homo sapiens) [compound 306] | – | – | – | Peptide exchange (peptide exchange yield, MHC class I binding score) (HLA-B*08): “++++” (>75% = ++++); Wells positive [%] (CD8+ T cells; HLA B*08): “+” (<20% = +)
215 (MMFSGPQILKL; listed as Homo sapiens) [compound 215] | – | – | “++++” (>75% = ++++) | –
298 (FNKRKPLSL; listed as Homo sapiens) [compound 298] | – | – | – | Peptide exchange (peptide exchange yield, MHC class I binding score) (HLA-B*08): “+++” (>50 = +++); Wells positive [%] (CD8+ T cells; HLA B*08): “+” (<20% = +)
130 (NLWGGQGLLGV; listed as Homo sapiens) [compound 130] | “++++” (>75% = ++++) | “+” (<20% = +) | – | –
304 (ELKKLYCQI; listed as Homo sapiens) [compound 304] | – | – | – | Peptide exchange (peptide exchange yield, MHC class I binding score) (HLA-B*08): “++++” (>75% = ++++)
219 (RLRSSLVFK; listed as Homo sapiens) [compound 219] | – | – | “++++” (>75% = ++++) | –
204 (AVFDKFIRY; listed as Homo sapiens) [compound 204] | – | – | “++++” (>75% = ++++) | –
212 (KAYEQVMHY; listed as Homo sapiens) [compound 212] | – | – | “++++” (>75% = ++++) | –
296 (MPMQDIKM; listed as Homo sapiens) [compound 296] | – | – | – | Peptide exchange (peptide exchange yield, MHC class I binding score) (HLA-B*08): “++++” (>75% = ++++)
128 (FLGTTPTL; listed as Homo sapiens) [compound 128] | “++++” (>75% = ++++) | “+” (<20% = +) | – | –
101 (FIISDWRFVL; listed as Homo sapiens) [compound 101] | “+++” (>50 = +++) | “+” (<20% = +) | – | –
456 (SMFTAILKK; listed as Homo sapiens) [compound 456] | – | – | “++++” (>75% = ++++) | –
217 (RILNQILYY; listed as Homo sapiens) [compound 217] | – | – | “++++” (>75% = ++++) | –
302 (HLLQKQTSI; listed as Homo sapiens) [compound 302] | – | – | – | Peptide exchange (peptide exchange yield, MHC class I binding score) (HLA-B*08): “+++” (>50 = +++)
206 (KLIDLSQVMY; listed as Homo sapiens) [compound 206] | – | – | “++++” (>75% = ++++) | –
97 (VLALVNSTV; listed as Homo sapiens) [compound 97] | “++++” (>75% = ++++) | “+++” (50%-69% = +++) | – | –

Substance | Peptide exchange (peptide exchange yield, MHC class I binding score) (HLA-A*02) | Wells positive [%] (CD8+ T cells; HLA A*02) | Peptide exchange (peptide exchange yield, MHC class I binding score) (HLA-A*03) | other results
94 (VLPDIETLIGV; listed as Homo sapiens) [compound 94] | “++++” (>75% = ++++) | “+++” (50%-69% = +++) | – | –
458 (GIADFVLKY; listed as Homo sapiens) [compound 458] | – | – | “++++” (>75% = ++++) | –
85 (YIDEFQSLV; listed as Homo sapiens) [compound 85] | “++++” (>75% = ++++) | “++” (20%-49% = ++) | – | –
392 (SLFKDQMEL; listed as Homo sapiens) [compound 392] | “++++” (>75% = ++++) | “+” (<20% = +) | – | –
209 (RTQIPMSEK; listed as Homo sapiens) [compound 209] | – | – | “++++” (>75% = ++++) | Wells positive [%] (CD8+ T cells; HLA A*03): “+” (<20% = +)
310 (LPPKKFVL; listed as Homo sapiens) [compound 310] | – | – | – | Peptide exchange (peptide exchange yield, MHC class I binding score) (HLA-B*08): “++++” (>75% = ++++)
95 (ITIGVLARV; listed as Homo sapiens) [compound 95] | “++++” (>75% = ++++) | “++++” (>=70% = ++++) | – | –
453 (AINTSIKNK; listed as Homo sapiens) [compound 453] | – | – | “++++” (>75% = ++++) | –
129 (VLYDKDAVYV; listed as Homo sapiens) [compound 129] | “++++” (>75% = ++++) | “++” (20%-49% = ++) | – | –
210 (ATSGVPVYK; listed as Homo sapiens) [compound 210] | – | – | “++++” (>75% = ++++) | Wells positive [%] (CD8+ T cells; HLA A*03): “++++” (>=70% = ++++)
393 (ILLPYLQTL; listed as Homo sapiens) [compound 393] | “++++” (>75% = ++++) | “+” (<20% = +) | – | –
205 (SLDGAARPK; listed as Homo sapiens) [compound 205] | – | – | “++++” (>75% = ++++) | Wells positive [%] (CD8+ T cells; HLA A*03): “++” (20%-49% = ++)
301 (YMHKLLVL; listed as Homo sapiens) [compound 301] | – | – | – | Peptide exchange (peptide exchange yield, MHC class I binding score) (HLA-B*08): “++++” (>75% = ++++)
454 (KVYTPSISK; listed as Homo sapiens) [compound 454] | – | – | “++++” (>75% = ++++) | –
131 (LLKEFVQRV; listed as Homo sapiens) [compound 131] | “++++” (>75% = ++++) | “++++” (>=70% = ++++) | – | –
211 (TVNPVAIHK; listed as Homo sapiens) [compound 211] | – | – | “++++” (>75% = ++++) | –
88 (VQMVITEAQKV; listed as Homo sapiens) [compound 88] | “++++” (>75% = ++++) | “++” (20%-49% = ++) | – | –
127 (GLDGSLVFL; listed as Homo sapiens) [compound 127] | “++++” (>75% = ++++) | “++” (20%-49% = ++) | – | –
202 (KLAELEGALQK; listed as Homo sapiens) [compound 202] | – | – | “++++” (>75% = ++++) | –

Substance | Peptide exchange (peptide exchange yield, MHC class I binding score) (HLA-A*02) | Wells positive [%] (CD8+ T cells; HLA A*02) | Peptide exchange (peptide exchange yield, MHC class I binding score) (HLA-A*03) | other results
89 (ILSTTMVTV; listed as Homo sapiens) [compound 89] | “++++” (>75% = ++++) | “+++” (50%-69% = +++) | – | –
309 (DAIQRKYSC; listed as Homo sapiens) [compound 309] | – | – | – | Peptide exchange (peptide exchange yield, MHC class I binding score) (HLA-B*08): “+++” (>50 = +++)
208 (GLASRILDAK; listed as Homo sapiens) [compound 208] | – | – | “++++” (>75% = ++++) | Wells positive [%] (CD8+ T cells; HLA A*03): “+” (<20% = +)
457 (SINKPTSER; listed as Homo sapiens) [compound 457] | – | – | “++++” (>75% = ++++) | –
125 (VLQPFLPSI; listed as Homo sapiens) [compound 125] | “++++” (>75% = ++++) | “++++” (>=70% = ++++) | – | –
84 (YVDINTFRL; listed as Homo sapiens) [compound 84] | “++++” (>75% = ++++) | “+” (<20% = +) | – | –
216 (KLYAWELAF; listed as Homo sapiens) [compound 216] | – | – | “+++” (>50 = +++) | –
214 (RTMSEAALVRK; listed as Homo sapiens) [compound 214] | – | – | “++++” (>75% = ++++) | Wells positive [%] (CD8+ T cells; HLA A*03): “+” (<20% = +)
207 (RSFNGLLTMY; listed as Homo sapiens) [compound 207] | – | – | “++++” (>75% = ++++) | –
218 (KTLVAELLILK; listed as Homo sapiens) [compound 218] | – | – | “+++” (>50 = +++) | Wells positive [%] (CD8+ T cells; HLA A*03): “+” (<20% = +)
317 (LVKVKVLL; listed as Homo sapiens) [compound 317] | – | – | – | Peptide exchange (peptide exchange yield, MHC class I binding score) (HLA-B*08): “++++” (>75% = ++++)
87 (TLYPYQISQL; listed as Homo sapiens) [compound 87] | “++++” (>75% = ++++) | “++” (20%-49% = ++) | – | –
132 (ALWLVDPLTV; listed as Homo sapiens) [compound 132] | “++++” (>75% = ++++) | “+++” (50%-69% = +++) | – | –
93 (TLQEKILQV; listed as Homo sapiens) [compound 93] | “++++” (>75% = ++++) | “+” (<20% = +) | – | –
112 (SVSDGIHSV; listed as Homo sapiens) [compound 112] | “++++” (>75% = ++++) | – | – | –
133 (MTLPVDAVISV; listed as Homo sapiens) [compound 133] | “++++” (>75% = ++++) | “+” (<20% = +) | – | –
123 (LMAFFLAVV; listed as Homo sapiens) [compound 123] | “++” (>20% = ++) | – | – | –
106 (FIIDTTYPAYV; listed as Homo sapiens) [compound 106] | “++++” (>75% = ++++) | – | – | –
203 (KVKDTPGLGK; listed as Homo sapiens) [compound 203] | – | – | “++++” (>75% = ++++) | –

Reference: US11292821B2, “Peptides and combination of peptides for use in immunotherapy against lung cancer, including NSCLC, SCLC and other cancers” (Immatics Biotechnologies GmbH, priority 2017, dated 2022)
